Blank lines part the entries; values can stand above or below the binder they belong to.
Tests used:
human GPRC5D [1] = target: T1, human GPRC5D (human, UniProt Q9NZD1 1-345); assay: flow cytometry on KMS-34 cells (endogenous human GPRC5D), anti-FLAG antibody and Alexa 488 anti-mouse IgG detection
T1 construct: whole, on cells; also called hGPRC5D; G-protein coupled receptor family C group 5 member D
Procedure: The KMS-34 cells were recovered by centrifugation, washed twice with a FACS buffer (PBS containing 0.5% BSA and 2 mM EDTA, pH 7.4), and then suspended in the same solution as above. The C2037, C3048, C3015 or C3022 scFv was added to the obtained cell suspension, and the mixture was left standing at 4° C. for 2 hours. After washing twice with a FACS buffer, the cells were suspended by the addition of an anti-FLAG antibody (Sigma-Aldrich Corp.), and the mixture was further left standing at 4° C. for 1 hour. After washing twice with a FACS buffer, the cells were suspended by the addition of Alexa 488-labeled anti-mouse IgG antibody (Jackson ImmunoResearch Laboratories, Inc.), and the mixture was further left standing at 4° C. for 1 hour. After washing twice with a FACS buffer, the cells were fixed in 1% PFA (prepared from a 32% paraformaldehyde solution (Electron Microscopy Sciences)), followed by detection using a flow cytometer (FACSCanto™ II; Becton, Dickinson and Company). The data was analyzed using Flowjo (Tree Star, Inc.).

[2] = target: T2, human GPRC5D amino-terminal peptide MYKDCIESTGDYFLLCDAEGPWGIILE-K(Biotin)-NH2, having an intramolecular … (human, C-terminal lysine carrying biotin, C-terminal amide; intramolecularly formed disulfide bond); assay: SPR (Biacore T200), kinetic analysis: biotinylated amino-terminal peptide of human GPRC5D on Sensor Chip CAP, scFv as analyte
T2 construct: Peptide Institute synthetic peptide; also called amino-terminal peptide of biotinylated human GPRC5D (disulfide bond present)
T2 peptide: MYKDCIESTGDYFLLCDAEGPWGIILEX
Procedure: The binding activity of the anti-GPRC5D antibodies against the amino-terminal peptide of human GPRC5D was tested by SPR using Biacore T200. The amino-terminal peptide of biotinylated human GPRC5D diluted to 2 nM with HBS-EP+ (manufactured by GE Healthcare Bio-Sciences Corp.) was immobilized on Sensor Chip CAP (manufactured by GE Healthcare Bio-Sciences Corp.) by contact at a rate of 10 μL/min for 180 seconds. Then, Kd was calculated by kinetic analysis using a plurality of concentrations of each scFv diluted with HBS-EP+ as analytes.

[3] = target: T3, amino-terminal peptide of cynomolgus monkey GPRC5D …(Biotin)-NH2 (cynomolgus monkey, C-terminal lysine carrying biotin, C-terminal amide); assay: ELISA, chemiluminescence: biotinylated amino-terminal peptide of cynomolgus monkey GPRC5D on NeutrAvidin, scFv detected with HRP anti-FLAG antibody
T3 construct: also called amino-terminal peptide of biotinylated cynomolgus monkey GPRC5D
T3 peptide: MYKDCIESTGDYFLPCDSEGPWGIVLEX
Procedure: NeutrAvidin diluted to 1 μg/mL with PBS was added in an amount of 50 μL/well to 96-well Maxi-sorp plate (Black, Nunc/Thermo Fisher Scientific Inc.), and the plate was left standing overnight at 4° C. for immobilization. After washing three times with an ELISA buffer, the amino-terminal peptide of the biotinylated human or cynomolgus monkey GPRC5D (used in Example 10)-1) diluted to 1 μg/mL with PBS was added thereto, and the plate was shaken at room temperature for 1 hour. After washing three times with an ELISA buffer, the plate was blocked with Blocker Casein and washed three times with an ELISA buffer. Then, the C2037, C3048, C3015, or C3022 scFv was added to the plate and reacted at room temperature for 2 hours. After washing three times with an ELISA buffer, a horseradish peroxidase (HRP)-labeled anti-FLAG antibody diluted 5000-fold with an ELISA buffer was added thereto in an amount of 50 μL/well and reacted at room temperature for 1 hour. After washing five times with an ELISA buffer, SuperSignal Pico ELISA Chemiluminescent substrate was added. After 10 minutes, the chemiluminescence was measured using a plate reader.

human GPRC5D [4] = target: T1, human GPRC5D; assay: flow cytometry on A4/Fuk cells (endogenous human GPRC5D), Penta-His Alexa Fluor 488 detection, rMFI = MFI minus sample without antibody
Procedure: Lymphoma cell line A4/Fuk cells (JCRB Cell Bank) were adjusted to an appropriate concentration with PBS containing 5% FBS. LIVE/DEAD Fixable Near-IR Dead Cell Stain Kit was added to the cells, which were then left standing at 4° C. for 30 minutes. The cells were washed twice with PBS containing 5% FBS, then adjusted to a concentration of 1×10⁶ cells/mL with PBS containing 5% FBS, inoculated in an amount of 100 μL/well to a 96-well U-bottomed microplate, and centrifuged to remove a supernatant. Each anti-GPRC5D-anti-CD3 bispecific molecule (C2037-C3E7034 to C3022-C3E7036 prepared in Example 12) diluted with PBS containing 5% FBS were added thereto in an amount of 100 μL/well, and the plate was left standing at 4° C. for 60 minutes. The cells were washed twice with PBS containing 5% FBS. Then, Penta-His Alexa Fluor 488 diluted with PBS containing 5% FBS was added thereto in an amount of 30 μL/well, and the plate was left standing at 4° C. for 30 minutes. The cells were washed twice with PBS containing 5% FBS and then resuspended in PBS containing 5% FBS, followed by detection using a flow cytometer (FACSCanto™ II). The data was analyzed using Flowjo. The mean fluorescence intensity (MFI) of Alexa Fluor 488 in a fraction free from dead cells was calculated. The MFI value of the antibody-unsupplemented sample was subtracted from the MFI value of the antibody-supplemented sample to calculate a relative value of MFI (rMFI).

human CD3 = target: T4, human CD3 (human, UniProt P07766 23-207); assay: flow cytometry on human PBMC (dead and CD19-positive cells excluded), Penta-His Alexa Fluor 488 detection, rMFI = MFI minus sample without antibody
T4 construct: CD3 complex on human PBMC; also called human CD3 (PBMC); human CD3-expressing cells
T4 sequence (P07766 23-207 limits assumed): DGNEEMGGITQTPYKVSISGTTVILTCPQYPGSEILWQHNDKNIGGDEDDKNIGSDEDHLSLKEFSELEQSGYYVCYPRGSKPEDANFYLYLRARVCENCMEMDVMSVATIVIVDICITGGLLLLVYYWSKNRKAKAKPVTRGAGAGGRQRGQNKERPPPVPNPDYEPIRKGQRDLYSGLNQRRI
Procedure: Commercially available human PBMC (Cellular Technology Limited) was adjusted to an appropriate concentration with PBS containing 5% FBS. LIVE/DEAD Fixable Near-IR Dead Cell Stain Kit (Thermo Fisher Scientific Inc.) and an anti-CD19 antibody (Beckman Coulter Inc.) were added to the cells, which were then left standing at 4° C. for 30 minutes. The cells were washed twice with PBS containing 5% FBS, then adjusted to a concentration of 1×10⁶ cells/mL with PBS containing 5% FBS, inoculated in an amount of 100 μL/well to a 96-well U-bottomed microplate, and centrifuged to remove a supernatant. Each anti-GPRC5D-anti-CD3 bispecific molecule (C2037-C3E7034 to C3022-C3E7036 prepared in Example 12) diluted with PBS containing 5% FBS were added thereto in an amount of 100 μL/well, and the plate was left standing at 4° C. for 60 minutes. The cells were washed twice with PBS containing 5% FBS. Then, Penta-His Alexa Fluor 488 (Qiagen N.V.) diluted with PBS containing 5% FBS was added thereto in an amount of 30 μL/well, and the plate was left standing at 4° C. for 30 minutes. […] The data was analyzed using Flowjo (Tree Star, Inc.). The mean fluorescence intensity (MFI) of Alexa Fluor 488 in a fraction free from dead cells and CD19-positive cells was calculated. […]

human GPRC5D [5] = target: T1, human GPRC5D; assay: flow cytometry, KHM-1B cells
Procedure: Human multiple myeloma cell line KHM-1B cells (JCRB Cell Bank) expressing GPRC5D were adjusted to a concentration of 5×10⁶ cells/mL with PBS containing 5% FBS, inoculated in an amount of 100 μL/well to a 96-well U-bottomed microplate, and centrifuged to remove a supernatant. Each rat anti-GPRC5D antibody (2A4, 2B1, and 7B4) adjusted to 0.32 ng/mL to 10 μg/mL in Example 1)-7 was added thereto in an amount of 100 μL/well, and the plate was left standing at 4° C. for 1 hour. The cells were washed twice with PBS containing 5% FBS. Then, PE Goat Anti-Rat Ab (Becton, Dickinson and Company) diluted 100-fold with PBS containing 5% FBS was added thereto at a concentration of 100 μL/well, and the plate was left standing at 4° C. for 1 hour. The cells were washed twice with PBS containing 5% FBS and then resuspended in PBS containing 5% FBS, followed by detection using a flow cytometer (FACSCanto™ II; Becton, Dickinson and Company). The data was analyzed using Flowjo (Tree Star, Inc.). The PE fluorescence intensity of the cell fraction was plotted to a histogram, and the mean fluorescence intensity (MFI) was calculated.

human GPRC5D [6] = target: T1, human GPRC5D; assay: flow cytometry, KMS-34 cells
[7] = target: T5, human GPRC5D amino-terminal peptide …(Biotin)-NH2, lacking an intramolecular disulfide bond (human, biotinylated carboxy terminus, C-terminal amide; no intramolecularly formed disulfide bond); assay: ELISA, immobilised biotinylated peptide
T5 construct: Sigma-Aldrich synthetic peptide; also called amino-terminal peptide of human GPRC5D (disulfide bond absent)
T5 peptide: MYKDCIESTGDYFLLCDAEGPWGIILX
Description: (§1) Epitopes bound by the obtained rat anti-GPRC5D antibodies (2A4, 2B1, and 7B4) were identified using a human GPRC5D amino-terminal peptide […](Biotin)-NH₂ (Sigma-Aldrich Corp.) (SEQ ID NO: 1 of the Sequence Listing; FIG. 2) having a biotinylated carboxy-terminal peptide and lacking an intramolecularly formed disulfide bond, and a human GPRC5D amino-terminal peptide […]-K(Biotin)-NH₂ (Peptide Institute, Inc.) (SEQ ID NO: 2 of the Sequence Listing; FIG. 3) having a lysine-containing biotinylated carboxy terminus and having an intramolecularly formed disulfide bond. Each peptide diluted with PBS was added to Nunc Immobilizer (Thermo Fisher Scientific Inc.), and the plate was left standing at room temperature for 1 hour. After washing three times with PBST, […] containing 1% BSA was added thereto, and the plate was left standing at room temperature for 1 hour. After washing three times with PBST, each rat anti-GPRC5D antibody (2A4, 2B1, and 7B4) prepared in Example 1)-7 and diluted to 0.1 ng/mL to 1 μg/mL with PBS was added thereto, and the plate was left standing at room temperature for 1 hour. After washing three times with PBST, Anti-Rat IgG, HRP-Linked Whole Ab Goat (GE Healthcare Bio-Sciences Corp.) diluted 500-fold with PBS was added thereto, and the plate was left standing at room temperature for 1 hour. After washing three times with PBST, SuperSignal™ ELISA Pico Chemiluminescent Substrate (Thermo Fisher Scientific Inc.) was added thereto, and the luminescence was measured using a plate reader (ENVISION; PerkinElmer, Inc.).

[8] = target: T2, human GPRC5D amino-terminal peptide …; assay: ELISA, immobilised biotinylated peptide
Description: as §1

binding result (human GPRC5D [1]): binds
Kd [2]: 95 nM
binding result [3]: binds
B1: human antibody C3022 scFv (scFv)
scFv: QVQLVQSGAEVKKPGASVKVSCKASGYTFTGYYMHWVRQAPGQGLEWMGRINPNSGGTNYAQKFQGRVTMTRDTSISTAYMELSGLRSDDTAVYYCASGSVRHPWGQGTLVTVSSGGGGSGGGGSGGGGSQPVLTQPPSASGTPGQRVTISCSGSRSNIGGNIVSWYQQFPGTAPRLLTYADNQRPSGVPDRFSGSKSGTSASLAISGLQSEDEADYYCAAWDDSLNGVVFGGGTKLTVL
notes: also called C3022 antibody scFv; not shown: FLAG and His tags at the carboxyl terminus

binding result (human GPRC5D [4]): binds
EC50 (read off the curve) (human CD3): ~0.4 nM
B2: anti-GPRC5D-anti-CD3 bispecific molecule C3048-C3E7034 (bispecific antibody)
scFv: GQVQLVQSGAEVKKPGSSVKVSCKASGGTFSRYAISWVRQAPGQGLEWMGGIIPIFGTANYAQKFQGRVTITADQSTRTAYMDLGRLRSEDTAVYYCALEGFRDSLKRNPFDIWGQGTMVTVSSGGGGSGGGGSGGGGSQSVVTQPPSVSAAPGQKVTISCSGGTTNIGSNYVSWYQQLPGTAPKFLMYENNKRPSGIPDRFSGSKSGTSATLAITGLQTGDEATYYCSTWDSSLNTGLFGGGTKLTVLGGGGSEVQLVESGGGLVQPGGSLRLSCAASGVTFNYYGMSWIRQAPGKGLEWVASITNSGGRIYYPDSVKGRFTISRENTQKTLYLQMNSLRAEDTAVYYCTLDGRDGWVAYWGQGTLVTVSSGGGGSGGGGSGGGGSNFMLTQPHSVSESPGKTVTISCKRNTGNIGSNYVNWYQQHEGSSPTTIIYRDDKRPDGVSDRFSGSIDRSSKSASLTISNLKTEDEADYFCQSYSSGFIFGGGTKLTVLGAAAGAGGDYKDDDDKGAAAHHHHHH
notes: Tandem scFv

Kd (human GPRC5D [5]): 1.3 nM
MFI (max) (human GPRC5D [5]): 2490
Kd (human GPRC5D [6]): 2.1 nM
MFI (max) (human GPRC5D [6]): 4470
B3: rat anti-GPRC5D antibody 7B4 (antibody, V domains shown)
VH: EIHLQESGPGLVKPSQSLSLTCSVTGYTITSGYDWSWIRKFPGNKMEWMAYMSYRGSTNYNPSLKSRISITRDTSKNQFFLQLNSVTTEDTATYYCALTRTYWYNYYYVLDAWGQGASVTVSS
VL: DIQMTQSPSFLSASVGERVTLSCKASQNINKYLDWYQQKLGEPPKLLIYNTNNLHTGIPSRFSGSGSGTDYTLTISGLQPEDVATYFCLQRNSWYTFGAGTKLELK
notes: Rat IgG2b, kappa chain
binding result [7]: no binding (tested: 0.1 ng/mL to 1 µg/mL)
binding result [8]: no binding (tested: 0.1 ng/mL to 1 µg/mL)
